The values that follow come from the supplement of paper PMC10567573.

To fix the notation:
B1: KRT33B (parent)
chain: PAVDLNQVLNETRNQYEALVETNR
B2: MATN2 (parent)
chain: FIVDILQFLDIGPDVTRVGLLQYG
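Note: lentivirally expressed fusions sorted by FACS into six bins by GFP to DsRed ratio, PSI derived from sequencing read proportions per bin multiplied by bin number.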

One data set covers variants of B1. As to the kind of experiment: protein stability index of a GFP-peptide fusion (GPS, HEK-293T) (PSI 1-6); higher = more stable. Particulars: c terminus: a fixed tail appended.
For the variant PAVDNNQVLNETRNQYEALVETNR, the protein stability index came out at 5.02.

As to PAVDPNQVLNETRNQYEALVETNR, the protein stability index stood at 4.03.

As for PAVDLNQVLNETRNQYEALVERNR, the protein stability index came to 4.02.

As to PAVDLNQVLNETRNQYEALVEPNR, the protein stability index is 4.65.

For PAVDLNQVLNETRNQYEALVELNR, the protein stability index is 2.23.

For PAVDLNQVLNETRNQYEALVEINR, the protein stability index was found to be 3.02.

With PAVDLNQVLNETRNQYEALVEMNR, the protein stability index came out at 3.33.

With PAVDLNQVLNETHNQYEALVETNR, the protein stability index was 4.76.

Take PAVDLNQVLNETQNQYEALVETNR: the protein stability index amounted to 4.32.

Take PAVDLNQVLNETGNQYEALVETNR: the protein stability index is 4.35.

With PAVDLNQVLNETMNQYEALVETNR, the protein stability index is 3.12.

Regarding PAVDLNQVLNETWNQYEALVETNR, the protein stability index was 3.92.

For the variant PAVDLNQVLNETDNQYEALVETNR, the protein stability index was found to be 4.93.

Consider PAVDLNQVLNETFNQYEALVETNR, for which the protein stability index amounted to 4.15.

Regarding PAVDLNQVLNETANQYEALVETNR, the protein stability index turned out to be 4.35.

For the variant PAVDLNQVLNETRNPYEALVETNR, the protein stability index was determined as 4.39.

Take PAVDLNQVLNETRNIYEALVETNR: the protein stability index came out at 3.44.

PAVDLNQVLNETRNFYEALVETNR: the protein stability index was determined as 2.72.

Regarding PAVVLNQVLNETRNQYEALVETNR, the protein stability index stood at 3.99.

As to PAVALNQVLNETRNQYEALVETNR, the protein stability index is 3.94.

With PAVRLNQVLNETRNQYEALVETNR, the protein stability index stood at 3.76.

Turning to PTVDLNQVLNETRNQYEALVETNR, the protein stability index worked out at 3.52.

Turning to PMVDLNQVLNETRNQYEALVETNR, the protein stability index was determined as 2.4.

As to PNVDLNQVLNETRNQYEALVETNR, the protein stability index was 4.4.

With PLVDLNQVLNETRNQYEALVETNR, the protein stability index is 3.25.

In the next data set the parent is B2. Described as above. Particulars: c terminus: a fixed tail appended.
On to FIVDILQFLDIGPDVRRVGLLQYG, for which the protein stability index came to 2.33.

In the case of FIVDILQFLDIGPDVMRVGLLQYG, the protein stability index is 1.06.

As for FIVDILQFLDIGPDLTRVGLLQYG, the protein stability index amounted to 1.88.

Take FIVDILQFLDIGPDNTRVGLLQYG: the protein stability index worked out at 2.49.

Take FIVDLLQFLDIGPDVTRVGLLQYG: the protein stability index is 2.26.

In the case of FIVDNLQFLDIGPDVTRVGLLQYG, the protein stability index was 2.12.

Turning to FIVDYLQFLDIGPDVTRVGLLQYG, the protein stability index is 3.16.

In the case of FIVDIAQFLDIGPDVTRVGLLQYG, the protein stability index was determined as 3.92.

In the case of FIVDIIQFLDIGPDVTRVGLLQYG, the protein stability index was determined as 2.56.

FIVDILQFLDIQPDVTRVGLLQYG: the protein stability index was 2.

With FIVDILQFLDIGPDVTRVGLLQQG, the protein stability index was 2.29.

In the case of FIVAILQFLDIGPDVTRVGLLQYG, the protein stability index is 2.58.

FIVYILQFLDIGPDVTRVGLLQYG: the protein stability index stood at 2.58.

As for FIVPILQFLDIGPDVTRVGLLQYG, the protein stability index was determined as 5.01.

With FIVVILQFLDIGPDVTRVGLLQYG, the protein stability index amounted to 2.77.

For FIVDILQFPDIGPDVTRVGLLQYG, the protein stability index was found to be 4.2.

FIVDILQFTDIGPDVTRVGLLQYG: the protein stability index is 2.81.

Take FIVDILQFQDIGPDVTRVGLLQYG: the protein stability index stood at 2.47.

As for FIVDILQFKDIGPDVTRVGLLQYG, the protein stability index is 1.84.

In the case of FIVDILQFLDIGPDVTRPGLLQYG, the protein stability index was 3.38.

For FIVDILQFLDIGPDVTRRGLLQYG, the protein stability index is 1.82.

For FIVDILQFLDIGPDVTRQGLLQYG, the protein stability index was determined as 1.8.

FIVDILQFLDIGPDVTRFGLLQYG: the protein stability index was found to be 3.25.

For the variant FIVDILQFLDIGPDVTRCGLLQYG, the protein stability index was 2.58.

FIVDILYFLDIGPDVTRVGLLQYG: the protein stability index turned out to be 3.34.

As for FIVDILQNLDIGPDVTRVGLLQYG, the protein stability index is 1.68.

With FIVDILQILDIGPDVTRVGLLQYG, the protein stability index came to 2.65.

Consider FIVDILQDLDIGPDVTRVGLLQYG, for which the protein stability index was 2.

As for FIVDILQFLDIGPDVTRVGRLQYG, the protein stability index was found to be 1.79.

Turning to FIVDILQFLDIGPDVTRVGFLQYG, the protein stability index was found to be 2.92.

On to FIVDILQFLDIGPDVTRVGNLQYG, for which the protein stability index was 3.71.

FIVDILQFLDIGPDVTRVGYLQYG: the protein stability index came to 3.45.

For FIVDILQFLDIGKDVTRVGLLQYG, the protein stability index came out at 2.15.

Consider FIVDILQFLDIGNDVTRVGLLQYG, for which the protein stability index was 3.21.

On to FIVDILQFLDIGIDVTRVGLLQYG, for which the protein stability index was determined as 2.79.

In the case of FIVDILQFLDIGMDVTRVGLLQYG, the protein stability index was found to be 2.4.

On to AIVDILQFLDIGPDVTRVGLLQYG, for which the protein stability index worked out at 2.61.

As to VIVDILQFLDIGPDVTRVGLLQYG, the protein stability index turned out to be 1.05.

For QIVDILQFLDIGPDVTRVGLLQYG, the protein stability index was 2.03.

Turning to FIVDILQFLDIGPDVTRVGLEQYG, the protein stability index came to 3.73.

For the variant FIVDILQFLDIGPDVTRVGLHQYG, the protein stability index came out at 2.01.

In the case of FKVDILQFLDIGPDVTRVGLLQYG, the protein stability index is 2.88.

Consider FHVDILQFLDIGPDVTRVGLLQYG, for which the protein stability index stood at 3.01.

Consider FLVDILQFLDIGPDVTRVGLLQYG, for which the protein stability index came to 1.44.

On to FIVDILQFLDIGPDVTRVMLLQYG, for which the protein stability index was found to be 3.24.

As for FIVDILQFLDIGPDVTRVWLLQYG, the protein stability index came to 2.62.

As for FIVDILQFLDIGPDVTRVSLLQYG, the protein stability index was 2.33.

FIVDILQFLDIGPDVTRVCLLQYG: the protein stability index is 1.32.

FIVDILQFLDIGPDVTRVLLLQYG: the protein stability index stood at 3.83.

As to FIVDILQFLDIGPDVTRVDLLQYG, the protein stability index was determined as 3.21.

Consider FIVDILQFLDIGPDVTYVGLLQYG, for which the protein stability index came to 3.22.

For FIVDILQFLDIGPDVTCVGLLQYG, the protein stability index is 2.86.

Regarding FIVDILQFLDIGPDVTLVGLLQYG, the protein stability index is 3.37.

For the variant FIVDILQFLDIGPDVTMVGLLQYG, the protein stability index was 2.05.

As to FIVDILQFLDIGPDVTRVGLLQYI, the protein stability index is 3.62.

With FIVDILQFLDIGPDVTRVGLLQYL, the protein stability index was 4.05.

Consider FIVDILQFLDIGPDVTRVGLLQYH, for which the protein stability index was 3.37.

For the variant FIVDILQFLDIGPDVTRVGLLQYF, the protein stability index is 3.31.

Consider FIVDILQFLDGGPDVTRVGLLQYG, for which the protein stability index was found to be 3.02.

Take FIVDILQFLDHGPDVTRVGLLQYG: the protein stability index is 4.42.

For FIVDILQFLDNGPDVTRVGLLQYG, the protein stability index turned out to be 2.49.

Turning to FIPDILQFLDIGPDVTRVGLLQYG, the protein stability index was determined as 2.84.

As for FINDILQFLDIGPDVTRVGLLQYG, the protein stability index turned out to be 3.33.

FIDDILQFLDIGPDVTRVGLLQYG: the protein stability index is 3.75.

Take FIVDILQFLDIGPAVTRVGLLQYG: the protein stability index was found to be 2.27.

In the case of FIVDILQFLDIGPHVTRVGLLQYG, the protein stability index is 2.17.

For the variant FIVDILQFLDIGPSVTRVGLLQYG, the protein stability index stood at 2.67.

As to FIVDILQFLDIGPIVTRVGLLQYG, the protein stability index was determined as 3.22.

On to FIVDILQFLDIGPYVTRVGLLQYG, for which the protein stability index was determined as 2.6.
